Data published in the supplement of paper PMC9112550, “Optimization of the antimicrobial peptide Bac7 by deep mutational scanning” (BMC Biology, 2022).

Each sequence was assayed on Escherichia coli TOP10 (assay: shrunken log2 fold change of peptide-encoding DNA abundance (4.5 h post-induction vs induction); higher = less antimicrobial activity (less host growth inhibition)). Details: time post-induction: 4.5 h; library: site-saturation at positions 5, 18, 19, 20.
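Note: peptides expressed intracellularly from a pBAD plasmid library in pooled LB shake-flask culture, induced with 0.3% L-arabinose, DNA abundance read by NGS, three biological replicates, DESeq2 with apeglm shrinkage.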

| Sequence | shrunken log2 fold change |
| --- | --- |
| RRIRHRPPRLPRPRPRPIIRPRP | -0.507 |
| RRIRIRPPRLPRPRPRPPMYPRP | -0.849 |
| RRIRHRPPRLPRPRPRPESFPRP | -0.0018 |
| RRIRDRPPRLPRPRPRPGKGPRP | 0.0189 |
| RRIRCRPPRLPRPRPRPYYWPRP | -0.992 |
| RRIRERPPRLPRPRPRPKTDPRP | -0.497 |
| RRIRCRPPRLPRPRPRPQCCPRP | 0.254 |
| RRIRKRPPRLPRPRPRPQGHPRP | 0.0492 |
| RRIRVRPPRLPRPRPRPQELPRP | -0.0343 |
| RRIRSRPPRLPRPRPRPLDPPRP | -0.0203 |
| RRIRKRPPRLPRPRPRPPDAPRP | 1.35 |
| RRIRKRPPRLPRPRPRPAIVPRP | 0.0885 |
| RRIRNRPPRLPRPRPRPWGAPRP | 0.0894 |
| RRIRCRPPRLPRPRPRPEIEPRP | -0.00676 |
| RRIRYRPPRLPRPRPRPMTAPRP | -0.0394 |
| RRIRNRPPRLPRPRPRPGCKPRP | -0.00214 |
| RRIRHRPPRLPRPRPRPECKPRP | -0.0985 |
| RRIRPRPPRLPRPRPRPIHAPRP | -0.0974 |
| RRIRIRPPRLPRPRPRPLGQPRP | -0.00501 |
| RRIRTRPPRLPRPRPRPSRHPRP | -0.481 |
| RRIRTRPPRLPRPRPRPKWIPRP | -0.232 |
| RRIRARPPRLPRPRPRPDYTPRP | -0.312 |
| RRIRCRPPRLPRPRPRPESPPRP | 0.315 |

| Sequence | shrunken log2 fold change |
| --- | --- |
| RRIRVRPPRLPRPRPRPYMWPRP | -0.48 |
| RRIRKRPPRLPRPRPRPPCEPRP | 0.509 |
| RRIRRRPPRLPRPRPRPDVEPRP | 0.0547 |
| RRIRWRPPRLPRPRPRPGPWPRP | 0.318 |
| RRIRVRPPRLPRPRPRPRYMPRP | -0.528 |
| RRIRHRPPRLPRPRPRPGWHPRP | 0.208 |
| RRIRYRPPRLPRPRPRPWCDPRP | -0.733 |
| RRIRRRPPRLPRPRPRPWQNPRP | -0.111 |
| RRIRGRPPRLPRPRPRPDPVPRP | 0.951 |
| RRIRRRPPRLPRPRPRPLMNPRP | 0.312 |
| RRIRKRPPRLPRPRPRPMPAPRP | 0.15 |
| RRIRTRPPRLPRPRPRPQHEPRP | -0.00128 |
| RRIRNRPPRLPRPRPRPFLWPRP | -0.199 |
| RRIRMRPPRLPRPRPRPNYIPRP | -0.492 |
| RRIRLRPPRLPRPRPRPRCLPRP | 0.18 |
| RRIRQRPPRLPRPRPRPRLQPRP | 0.501 |
| RRIRFRPPRLPRPRPRPIFEPRP | -0.0328 |
| RRIRYRPPRLPRPRPRPWSLPRP | 0.0143 |
| RRIRQRPPRLPRPRPRPDCFPRP | 0.291 |
| RRIRLRPPRLPRPRPRPNFMPRP | -0.117 |
| RRIRWRPPRLPRPRPRPHNVPRP | -0.178 |
| RRIRKRPPRLPRPRPRPAEMPRP | -0.00753 |
| RRIRFRPPRLPRPRPRPWIMPRP | -0.206 |

| Sequence | shrunken log2 fold change |
| --- | --- |
| RRIRSRPPRLPRPRPRPVPKPRP | 0.232 |
| RRIRQRPPRLPRPRPRPDIWPRP | -0.214 |
| RRIRIRPPRLPRPRPRPHSPPRP | -0.161 |
| RRIRPRPPRLPRPRPRPLKMPRP | -0.124 |
| RRIRQRPPRLPRPRPRPHRIPRP | -0.0425 |
| RRIRYRPPRLPRPRPRPIMPPRP | -0.948 |
| RRIRARPPRLPRPRPRPDKNPRP | -0.00427 |
| RRIRTRPPRLPRPRPRPDINPRP | -0.151 |
| RRIRIRPPRLPRPRPRPMICPRP | -0.224 |
| RRIRTRPPRLPRPRPRPVHKPRP | -0.285 |
| RRIRRRPPRLPRPRPRPKGDPRP | 0.3 |
| RRIRGRPPRLPRPRPRPDFAPRP | 0.724 |
| RRIRVRPPRLPRPRPRPFNNPRP | -0.147 |
| RRIRIRPPRLPRPRPRPQMDPRP | -0.258 |
| RRIRWRPPRLPRPRPRPSYKPRP | -0.479 |
| RRIRGRPPRLPRPRPRPSIFPRP | 0.415 |
| RRIRARPPRLPRPRPRPWQYPRP | -0.123 |
| RRIRWRPPRLPRPRPRPKVCPRP | -0.0693 |
| RRIRTRPPRLPRPRPRPINRPRP | 0.028 |
| RRIRPRPPRLPRPRPRPPSEPRP | 0.447 |
| RRIRWRPPRLPRPRPRPFDCPRP | -0.0389 |
| RRIRLRPPRLPRPRPRPADAPRP | 0.599 |
| RRIRDRPPRLPRPRPRPMDVPRP | -0.0846 |

| Sequence | shrunken log2 fold change |
| --- | --- |
| RRIRQRPPRLPRPRPRPFQFPRP | -0.252 |
| RRIRARPPRLPRPRPRPWGWPRP | 0.649 |
| RRIRYRPPRLPRPRPRPKIFPRP | -0.297 |
| RRIRKRPPRLPRPRPRPTMHPRP | 0.455 |
| RRIRNRPPRLPRPRPRPFICPRP | -0.38 |
| RRIRHRPPRLPRPRPRPIRNPRP | -0.387 |
| RRIRRRPPRLPRPRPRPKFPPRP | 0.361 |
| RRIRIRPPRLPRPRPRPHGIPRP | -0.0115 |
| RRIRQRPPRLPRPRPRPDKLPRP | -0.522 |
| RRIRARPPRLPRPRPRPCFVPRP | -0.0979 |
| RRIRRRPPRLPRPRPRPDCWPRP | 0.676 |
| RRIRQRPPRLPRPRPRPCYGPRP | -0.0796 |
| RRIRPRPPRLPRPRPRPVLVPRP | 0.0376 |
| RRIRPRPPRLPRPRPRPEKHPRP | 0.418 |
| RRIRYRPPRLPRPRPRPITWPRP | -0.353 |
| RRIRERPPRLPRPRPRPNFCPRP | 0.00589 |
| RRIRMRPPRLPRPRPRPKDKPRP | 1.93 |
| RRIRERPPRLPRPRPRPISCPRP | -0.705 |
| RRIRDRPPRLPRPRPRPVWHPRP | 0.0277 |
| RRIRNRPPRLPRPRPRPFKQPRP | -0.0135 |
| RRIRHRPPRLPRPRPRPPCGPRP | 0.176 |
| RRIRDRPPRLPRPRPRPISHPRP | 0.0261 |
